Experimental data reported in PMC3843485.

Biological target: Pseudomonas aeruginosa cytoplasmic heme binding protein PhuS, apo form (Pseudomonas aeruginosa)
Assay: crystal structure

Pseudomonas aeruginosa cytoplasmic heme binding protein PhuS, apo form (natural protein)
stoichiometry N: 2
